According to article PMC9584954:

Experiments:
[1] = biological target: Flag-Strep2-tagged Methanococcus aeolicus McrG (tag at the N-terminus of McrG, NG) (Methanococcus aeolicus); assay: native MS; intact protein mass spectrometry (12 T FT-ICR, nano-electrospray) of purified NG-tagged MCRaeo, 10 μM in 200 mM ammonium acetate pH 7.6
[2] = biological target: Methanococcus aeolicus McrA (untagged) (Methanococcus aeolicus); assay: as above
[3] = biological target: Methanococcus aeolicus McrB (untagged) (Methanococcus aeolicus); assay: as above
[4] = biological target: Flag-Strep2-tagged Methanococcus aeolicus McrA (tag at the C-terminus of McrA, CA) (Methanococcus aeolicus); assay: affinity purification with mass spectrometry; Flag-Strep2-tagged subunit expressed with its mcr operon (full or truncated) in M. maripaludis at 37 °C; lysate on Strep-Tactin Superflow Plus in 100 mM Tris-HCl pH 7.6, 150 mM NaCl, eluted with 2.5 mM desthiobiotin, then Q-Sepharose anion exchange; SDS-PAGE, bands identified by MALDI-TOF MS, relative abundance by LC-MS/MS
[5] = biological target: Flag-Strep2-tagged Methanococcus aeolicus McrB (tag at the N-terminus of McrB, NB) (Methanococcus aeolicus); assay: as above
[6] = biological target: Flag-Strep2-tagged Methanococcus aeolicus McrG (tag at the N-terminus of McrG, NG) (Methanococcus aeolicus); assay: as above

## Flag-Strep2-tagged Methanococcus aeolicus McrG (tag at the N-terminus of McrG, NG) (natural protein)
[1]
  stoichiometry N: 2

## Methanococcus aeolicus McrA (untagged) (natural protein)
[2]
  stoichiometry N: 2

## Methanococcus aeolicus McrB (untagged) (natural protein)
[3]
  stoichiometry N: 2

## untagged host Methanococcus maripaludis McrG (natural protein)
[4]
  percent of the total McrG in the purified complex: 30%
[5]
  percent of the total McrG in the purified complex: 30%
[6]
  percent of the total McrG in the purified complex: 30%
